Positions of bridges follow the written chain, without caps; N, C: chain ends. No end group written: not given here. *: point of attachment. Biotin = O=C1N[C@H]2[C@H](CS[C@H]2CCCCC(=O)*)N1; βAla = NCCC(=O)O
T1: Prefoldin from Pyrococcus horikoshii (PhPFD, α2β4 heterohexamer, 86.4 kDa) (Pyrococcus horikoshii, UniProt O58263 1-148; O58268 1-117, S98G)
T1 construct: Prefoldin α-subunit, Pyrococcus horikoshii, with the point mutation S98G; Prefoldin β-subunit, Pyrococcus horikoshii; Used unlabelled (NMR titration, BLI, EM, ThT assays) and, for the PRE experiments, highly deuterated with 15N or 13CH3 labels on either the α- or the β-subunit; also called archaeal prefoldin; source: E. coli BL21 (DE3), α- and β-subunit from separate pET23c plasmids, purified …
T1 sequence 1: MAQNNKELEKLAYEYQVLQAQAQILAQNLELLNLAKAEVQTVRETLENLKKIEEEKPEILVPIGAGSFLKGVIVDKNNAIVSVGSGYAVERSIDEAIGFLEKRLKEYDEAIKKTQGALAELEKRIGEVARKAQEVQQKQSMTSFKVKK
T1 sequence 2: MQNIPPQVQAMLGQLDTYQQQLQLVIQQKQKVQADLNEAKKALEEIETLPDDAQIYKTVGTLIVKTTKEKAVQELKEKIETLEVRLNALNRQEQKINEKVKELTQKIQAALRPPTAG


How the values were obtained:
[1] = biological target: T1, Prefoldin from Pyrococcus horikoshii …; experiment: NMR titration; unlabeled PhPFD added to 29 µM U-[15N]-IAPP, ratios 1:0 to 1:8; 2D 15N-SOFAST-HMQC at 30 °C; 25 mM MES/NaOH (pH 6.5), 25 mM MgCl2; TITAN global lineshape fitting, two-state model assuming 1:1 stoichiometry; apparent; settings: both partners purified
[2] = biological target: T1, Prefoldin from Pyrococcus horikoshii …; experiment: BLI; biotinylated monomeric IAPP immobilised on Super Streptavidin biosensors, quenched with biotin; PhPFD 0.5 µM to 150 µM in solution; room temperature; 50 mM MES/NaOH (pH 6.5), 25 mM MgCl2; steady state analysis; settings: both partners purified

Kd [1] [µM] | koff [1] [s⁻¹] | Kd [2] [µM] | Binder
61 | ~6000 |  | KCNTATCATQRLANFLVHSSNNFGAILSSTNVGSNTY-OH (ends and bridges not checked; also: U-[15N] isotope label, Human islet amyloid polypeptide (IAPP, amylin); numbers count on: the mature protein; also called U-[15N]-IAPP; monomeric IAPP; source: preparative RP-HPLC as final step) [U-[15N]-labeled recombinant human IAPP (non-amidated), monomeric]
 |  | 11 ± 1.2 | {Biotin-βAla-βAla}-KCNTATCATQRLANFLVHSSNNFGAILSSTNVGSNTY-NH2 (disulfide 2-7; SMILES CC[C@H](C)[C@H](NC(=O)[C@H](C)NC(=O)CNC(=O)[C@H](Cc1ccccc1)NC(=O)[C@H](CC(N)=O)NC(=O)[C@H](CC(N)=O)NC(=O)[C@H](CO)NC(=O)[C@H](CO)NC(=O)[C@H](Cc1c[nH]cn1)NC(=O)[C@@H](NC(=O)[C@H](CC(C)C)NC(=O)[C@H](Cc1ccccc1)NC(=O)[C@H](CC(N)=O)NC(=O)[C@H](C)NC(=O)[C@H](CC(C)C)NC(=O)[C@H](CCCNC(=N)N)NC(=O)[C@H](CCC(N)=O)NC(=O)[C@@H](NC(=O)[C@H](C)NC(=O)[C@@H]1CSSC[C@H](NC(=O)[C@H](CCCCN)NC(=O)CCNC(=O)CCNC(=O)CCCC[C@@H]2SC[C@@H]3NC(=O)N[C@@H]32)C(=O)N[C@@H](CC(N)=O)C(=O)N[C@@H]([C@@H](C)O)C(=O)N[C@@H](C)C(=O)N[C@@H]([C@@H](C)O)C(=O)N1)[C@@H](C)O)C(C)C)C(=O)N[C@@H](CC(C)C)C(=O)N[C@@H](CO)C(=O)N[C@@H](CO)C(=O)N[C@H](C(=O)N[C@@H](CC(N)=O)C(=O)N[C@H](C(=O)NCC(=O)N[C@@H](CO)C(=O)N[C@@H](CC(N)=O)C(=O)N[C@H](C(=O)N[C@@H](Cc1ccc(O)cc1)C(N)=O)[C@@H](C)O)C(C)C)[C@@H](C)O, Human islet amyloid polypeptide (IAPP, amylin), 37 residues; numbers count on: the mature protein; Molecular mass 4271.9 Da, purity 99.2%; also called monomeric biotinylated IAPP; source: synthetic peptide (custom synthesized, Pepscan, Lelystad); not shown: biotin, N-terminal, kept) [biotinylated IAPP (biotinyl-[β-Ala]-[β-Ala]-IAPP-NH2), monomeric]
